Laboratory results taken from patent US20220153832A1 (PIONYR IMMUNOTHERAPEUTICS, published 2022).
Where a chain is given by its changes, count along the chain named.

B1: PI-3015-AB (antibody, human IgG1, kappa)
heavy: not shown
light: DIQMTQSPSSLSASVGDRVTITCRASEGISNDLAWYQQKPGKAPKLLIYAASRLQSGVPSRFSGSGSGTDYTLTISSMQPEDFATYYCQQSYKYPLTFGQGTKLEIKRTVAAPSVFIFPPSDEQLKSGTASVVCLLNNFYPREAKVQWKVDNALQSGNSQESVTEQDSKDSTYSLSSTLTLSKADYEKHKVYACEVTHQGLSSPVTKSFNRGEC
B2: PI-HX-3031 (antibody)
heavy: QVQLKESGPGLVQPSQTLSLTCTVSGFSLTSYHVSWVRQPPGKGLEWMGAIWTGGSIAYNSLLKSRLSISRDTSKSQVFLKMNSLQTEDTATYYCARDLSDYYSSYTSFDYWGQGVMVTVSTAETTAPSVYPLAPGTALKSNSMVTLGCLVKGYFPEPVTVTWNSGALSSGVHTFPAVLQSGLYTLTSSVTVPSSTWSSQAVTCNVAHPASSTKVDKKIVPRECNPCGCTGSEVSSVFIFPPKTKDVLTITLTPKVTCVVVDISQNDPEVRFSWFIDDVEVHTAQTHAPEKQSNSTLRSVSELPIVHRDWLNGKTFKCKVNSGAFPAPIEKSISKPEGTPRGPQVYTMAPPKEEMTQSQVSITCMVKGFYPPDIYTEWKMNGQPQENYKNTPPTMDTDGSYFLYSKLNVKKETWQQGNTFTCSVLHEGLHNHHTEKSLSHSP
light: DIQMTQSPASLSTSLGETVSIECLASEGISNDLAWYQQKSGKSPQLLIYAASRLQDGVPSRFSGSGSGTRYSLKISGMQPEDEADYFCQQSYKYPLTFGSGTKLEIKRADAAPTVSIFPPSTEQLATGGASVVCLMNNFYPRDISVKWKIDGTERRDGVLDSVTDQDSKDSTYSMSSTLSLTKADYESHNLYTCEVVHKTSSSPVVKSFNRNEC
notes: Parental rat hybridoma, rat IgG2a
B3: PI-HX-3043 (antibody, rat IgG2a)
heavy: QVNLLQSRAALVKPGASVKLSCKASGYTFTDYYLHWVKQSHAKSLEWIGYINPNNAYTSYNEKFKSKATLTVDKSTNTAYMELSRLTSADSATYYCARDTTDYYNLHFAYWGQGTLVTVSSAETTAPSVYPLAPGTALKSNSMVTLGCLVKGYFPEPVTVTWNSGALSSGVHTFPAVLQSGLYTLTSSVTVPSSTWSSQAVTCNVAHPASSTKVDKKIVPRECNPCGCTGSEVSSVFIFPPKTKDVLTITLTPKVTCVVVDISQNDPEVRFSWFIDDVEVHTAQTHAPEKQSNSTLRSVSELPIVHRDWLNGKTFKCKVNSGAFPAPIEKSISKPEGTPRGPQVYTMAPPKEEMTQSQVSITCMVKGFYPPDIYTEWKMNGQPQENYKNTPPTMDTDGSYFLYSKLNVKKETWQQGNTFTCSVLHEGLHNHHTEKSLSHSP
light: B2 light with T13A, A25T, A50D, Q55E, P80T
notes: as for B2
B4: PI-3010-AB (antibody, human IgG1, kappa)
heavy: not shown
light: DIQMTQSPASLSTSLGETVSIECLASEGISNDLAWYQQKSGKSPQLLIYAASRLQDGVPSRFSGSGSGTRYSLKISGMQPEDEADYFCQQSYKYPLTFGSGTKLEIKRTVAAPSVFIFPPSDEQLKSGTASVVCLLNNFYPREAKVQWKVDNALQSGNSQESVTEQDSKDSTYSLSSTLTLSKADYEKHKVYACEVTHQGLSSPVTKSFNRGEC

Legend:
[1] = molecular target: T1, recombinant cynomolgus MARCO protein (cynomolgus, UniProt A0A2K5X0Z2 65-519); test: SPR, single cycle (sc)
T1 construct: Construct not described; also called cyno MARCO; cynoMARCO
T1 sequence: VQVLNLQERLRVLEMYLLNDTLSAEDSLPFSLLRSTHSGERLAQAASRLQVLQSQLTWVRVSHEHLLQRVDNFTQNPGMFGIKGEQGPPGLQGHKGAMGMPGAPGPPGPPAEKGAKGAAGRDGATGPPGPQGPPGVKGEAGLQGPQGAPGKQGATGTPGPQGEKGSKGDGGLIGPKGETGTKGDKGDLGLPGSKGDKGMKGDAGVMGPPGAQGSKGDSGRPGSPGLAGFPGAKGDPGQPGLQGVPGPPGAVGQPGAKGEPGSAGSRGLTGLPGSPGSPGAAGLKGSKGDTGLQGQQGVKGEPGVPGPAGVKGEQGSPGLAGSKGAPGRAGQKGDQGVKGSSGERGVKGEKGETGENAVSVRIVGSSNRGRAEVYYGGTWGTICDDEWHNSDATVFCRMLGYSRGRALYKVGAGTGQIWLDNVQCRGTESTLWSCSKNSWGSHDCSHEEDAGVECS

[2] = molecular target: T2, N-terminally polyhistidine tagged human MARCO ECD (147-520), recombinant (human, UniProt Q9UEW3 147-520); test: SPR, single cycle (sc)
T2 construct: also called PI-RG-3000; recombinant human MARCO; not shown: N-terminal polyhistidine tag
T2 sequence: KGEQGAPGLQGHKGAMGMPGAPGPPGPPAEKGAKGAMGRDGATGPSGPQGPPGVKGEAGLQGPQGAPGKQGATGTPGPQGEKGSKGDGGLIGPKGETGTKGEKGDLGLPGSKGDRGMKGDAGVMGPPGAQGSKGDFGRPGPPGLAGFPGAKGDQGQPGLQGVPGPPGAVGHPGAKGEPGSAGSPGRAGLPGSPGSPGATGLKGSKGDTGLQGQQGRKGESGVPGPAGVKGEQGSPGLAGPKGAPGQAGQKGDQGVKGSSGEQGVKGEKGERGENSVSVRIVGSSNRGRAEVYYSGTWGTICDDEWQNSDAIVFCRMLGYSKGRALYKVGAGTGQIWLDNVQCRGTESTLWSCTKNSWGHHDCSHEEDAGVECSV

[3] = molecular target: T3, Cynomolgus MARCO, full length, on cells (cynomolgus, UniProt A0A2K5X0Z2 1-519); test: flow cytometry, cells overexpressing cyno MARCO
T3 construct: whole, on cells; also called cyno MARCO; CyMARCO
T3 sequence: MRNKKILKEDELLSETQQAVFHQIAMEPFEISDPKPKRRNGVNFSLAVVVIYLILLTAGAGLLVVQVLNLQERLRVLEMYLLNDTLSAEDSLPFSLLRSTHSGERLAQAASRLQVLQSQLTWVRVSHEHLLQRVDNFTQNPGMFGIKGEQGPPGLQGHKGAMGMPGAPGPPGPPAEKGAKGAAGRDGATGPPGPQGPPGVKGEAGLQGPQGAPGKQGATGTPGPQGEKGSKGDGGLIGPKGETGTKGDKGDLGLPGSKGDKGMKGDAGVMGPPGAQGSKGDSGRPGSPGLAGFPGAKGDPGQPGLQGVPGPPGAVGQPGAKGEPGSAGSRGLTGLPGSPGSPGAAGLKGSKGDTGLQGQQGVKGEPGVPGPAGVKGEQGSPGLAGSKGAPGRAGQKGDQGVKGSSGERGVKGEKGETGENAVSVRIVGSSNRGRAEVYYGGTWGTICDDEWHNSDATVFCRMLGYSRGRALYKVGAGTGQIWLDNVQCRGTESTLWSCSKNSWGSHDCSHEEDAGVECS

[4] = molecular target: T3, Cynomolgus MARCO, full length, on cells; test: flow cytometry, 293T (CyMARCO)
Procedure: Supernatants were removed and cell pellets were resuspended in Ca²⁺+ and Mg²⁺+ Dulbecco's phosphate-buffered saline (D-PBS) at 1×10⁶ cells/ml. 100,000 cells/well were plated onto U-bottom 96-well plates for staining and all centrifugation steps were performed at 1500 rpm at 4° C. for 5 min and samples were kept protected from light throughout the protocol. Cells were pelleted and resuspended in 100 μl of Zombie NIR viability dye (BioLegend) prepared by diluting Zombie NIR dimethyl sulfoxide (DMSO) stock 1000-fold in D-PBS. Cells were stained by incubation for 10 min at room temperature (RT) in the dark, followed by quenching the staining reaction with the addition of 100 μl of Staining Medium (D-PBS containing 2% FBS and 2 mM ethylenediaminetetraacetic acid (EDTA). Cells were pelleted and resuspended in 100 μl of the different antibodies and hybridomas supernatants needed for screening and corresponding isotype controls in freshly prepared staining medium, such as PI-M014 and mIgG2b isotype. All mAbs were tested at the final top concentration of 100 nM (15 μg/ml) followed by an 8-point three-fold serial dilution, including 0 mg/ml control. Staining was carried out for 1 hour (hr) on ice, followed by 2 washes in Staining Medium. Cells were then pelleted and resuspended in 100 μl of allophycocyanin (APC)-conjugated goat anti-mouse IgG (Fc-specific) secondary antibody, prepared by 500-fold dilution of the antibody stocks in Staining Medium, and incubated for 30 min on ice. […] Flow cytometry data were analyzed using FlowJo software (version 10.6.1) and data were processed and further analyzed in Microsoft Excel and GraphPad Prism software (version 8). Half-maximal effective concentrations (EC₅₀) were calculated based on geometric mean fluorescence intensities (gMFI). In case when the plates were not able to be analyzed on the cytometer, cells were pelleted after the washes and fixed in 100 μl of 2% paraformaldehyde (PFA), prepared by diluting the 16% (w/v) stock (Thermo Fisher) in DPBS, for 15 min at RT. […]

| Binder | Kd [1] [nM] | Kd [2] [nM] | EC50 [3] [nM] | EC50 [4] [nM] |
| --- | --- | --- | --- | --- |
| B1 | 0.611 | 0.911 | 1.73 | – |
| B2 | – | – | – | 0.046 |
| B3 | – | – | – | 0.067 |
| B4 | 0.259 | 0.43 | 1.48 | – |
